Assay results as given in patent US9884910B2, “Anti-PDGF-C antibodies” (ThromboGenics NV, priority 2012, dated 2018).

Assays:
[1] = target: T1, 15-mer, overlapping peptides covering the entire human PDGF-C molecule (Homo sapiens, UniProt Q9NRA1); experiment: Epitope mapping ELISA on 15-mer overlapping peptides; type: binding; settings: peptide coated 10 μg/mL, antibody 1 μg/mL
T1 construct: host or cells: chemical synthesis
Description: The binding of anti-PDGF-C antibodies to 15-mer, overlapping peptides covering the entire human PDGF-C molecule was assessed by ELISA. Antibodies included in this analysis are the five antibodies potently inhibiting activation of PDGF-Rα by PDGF-C, i.e. monoclonal antibodies 2D3, 5A2, 5H7, 16B1 and 29H1. Further included are two antibodies capable of binding to PDGF-C, but not or very poorly inhibiting activation of PDGF-Rα by PDGF-C, i.e. monoclonal antibodies 12E5 (IgG1) and 19F12 (IgG2b) (see Example 4). […] For all antibodies, it was confirmed that they bind to human PDGF-C and binding to full-length human PDGF-C was for all antibodies tested more efficient than binding to any of the peptides identified as described hereafter.
The indicated peptides where synthesized in an N-terminally biotinylated form and coated onto a neutravidin plate (Thermo Scientific, Cat. 15127) at a concentration of 10 μg/mL. The antibodies listed in the table were incubated in each well at a concentration of 1 μg/mL and, following washing, were then detected in a standard ELISA format using an appropriate, HRP-labeled secondary antibody (goat anti-mouse IgG-HRP for all antibodies except sc-80290, and goat anti-rat IgG-HRP for sc-80290). Each antibody was tested at least twice, and up to 4 times. A “+” in the table indicate that a signal to background >3 was found and confirmed at least once. The background signal was measured in the absence of peptide using both the primary and the secondary antibodies. Antibodies sc-80290 and MAB1560 were tested only against peptides 42-63 since this represents the fraction of the protein that was used as an immunogen.

glioblastoma tumor, U118 = experiment: Antitumor effect against U118 glioblastoma xenograft; type: in vivo; settings: for tolerability / body weight loss: 20 mg/kg IP twice a week; for TGI (%) Day 53 / TGI (%) Day 56 / TGI (%) Day 60 / TGI (%) Day 63 / TGI (%) Day 67: 20 mg/kg IP twice a week from day 28; for TGI (%) Day 53: day 53 post-tumor implantation; for TGI (%) Day 56: day 56 post-tumor implantation; for TGI (%) Day 60: day 60 post-tumor implantation; for TGI (%) Day 63: day 63 post-tumor implantation; for TGI (%) Day 67: day 67 post-tumor implantation
Description: For the evaluation of anti-tumor activity of the antibodies, animals were weighed and tumors measured 2 times weekly using a caliper. Tumor weights were calculated using the formula mass (mg)=[length (mm)×width (mm)^2]/2. Antitumor activity evaluation was done at the single dose of 20 mg/kg. A dosage producing a 20% body weight loss (bwl) or 10% or more drug deaths, was considered an excessively toxic dosage. Animal body weights included the tumor weights. The primary efficacy end point is the tumor growth inhibition (% TGI). Changes in tumor volume for each treated (T) and control (C) are calculated for each tumor by subtracting the tumor volume on the day of first treatment (staging day) from the tumor volume on the specified observation day. The median ΔT is calculated for the treated group and the median ΔC is calculated for the control group. Then the ratio ΔT/ΔC is calculated and expressed as a percentage of TGI: ΔT=Tt−T0 ΔC=Ct−C0 % TGI=[1−(median(Tt−T0)/median(Ct−C0)]*100
The antitumor effect of 29H1, 5A2 and 16B1 was evaluated against a measurable glioblastoma tumor, U118, which express both PDGF-C and its receptor, PDGFRa, S.C. implanted in female SCID Beige mice. Control group was treated with PBS alone. The antibodies were administered by an intraperitoneal (IP) injection, and treatment started on day 28 post-tumor implantation and was performed twice a week.

[2] = target: T2, PDGFRα activation by human PDGF-C (Homo sapiens, UniProt Q9NRA1); experiment: PathHunter PDGFRα receptor tyrosine kinase assay in U2OS PDGFRα PLCG1 cells; type: cell-based
T2 construct: the growth factor domain of PDGF-C (amino acids 235-345 of human PDGF-C); purchased R&D Systems 1687-CC/CF; host or cells: ligand added to U2OS PDGFRα PLCG1 cells (DiscoveRx, assay 93-0823C3) that express the transfected receptor
Source text: To evaluate the inhibitory activity of anti-human PDGF-C antibodies on PDGFRα activation by human PDGF-C, the PathHunter® receptor tyrosine kinase assay for PDGFRα (93-0823C3) from DiscoveRx® was used. […] A small complementing fragment of β-gal, the Prolink™ tag (PK) has been fused recombinantly to the intracellular C-terminus of the receptor tyrosine kinase PDGFRα. The larger portion of β-gal, termed EA for enzyme acceptor, is co-expressed with an SH2 (Src Homology 2) phosphotyrosine binding domain. Ligand-induced activation of the receptor results in dimerization and intra-cellular cross-phosphorylation of the receptor. Subsequently, the SH2 domain specifically binds the phosphorylated receptor resulting in the complementation of the two β-gal fragments PK and EA, and formation of a functional β-gal enzyme. Following addition of a β-gal substrate, an easily detectable chemiluminescent signal is produced which is directly correlated to receptor activation. The LumiLITE™ microplate reader is fully compatible with all EFC-based assays of DiscoveRx® and is therefore used.
For the PathHunter® PDGFRα, assay, U2OS PDGFRα, PLCG1 (phospholipase Cγ as the source of the SH2 domain) cells from DiscoveRx® were used. Frozen cells were stored in liquid nitrogen. Upon thawing, cells were resuspended in pre-warmed thawing medium (i.e. culture medium without the selection antibiotics Geneticin and Hygromycin B). After 48 hours of culture in a 5% CO2 incubator at 37° C., thawing medium was replaced by culture medium (MEM Eagle 1× (30-2003 from Invitrogen), 10% fetal bovine serum (SH30071.03 from Perbio Science), 1× Penicillin-Streptomycin-Glutamine (10378-016 from Invitrogen), 250 μg/ml Hygromycin B (10687-010 from Invitrogen), 500 μg/ml Geneticin (10131-035 from Invitrogen)). Once confluence was reached, cells were passaged with a ⅓ dilution every 2-3 days using Accutase (L11-007 from PAA). Cells were maintained in a non-confluent state during routine culture.
In the PathHunter® PDGFRα, assay, the U2OS PDGFRα, PLCG1 cells from DiscoveRx® cultured up to 10 passages were used. Cells were seeded at 20.000 cells in 100 μl per well in 96-well white culture-treated microplates with clear bottom (3610 from Corning). The PathHunter® Cell Plating 16 Reagent (93-0563R16 from DiscoveRx®) was employed as seeding medium. Following 24 hours of culture in 5% CO2 at 37° C., 25 μl of a 5-fold concentrated agonist solution in Cell Plating 16 Reagent was used per well to stimulate the cells. Recombinant human PDGF-C from R&D Systems (1687-CC/CF; Va1235-Gly345) was applied as agonist. After 3 hours incubation at room temperature, 60 μl of PathHunter® detection reagent (93-0001 from DiscoveRx®; 1 part Galacton Star® Substrate, 5 parts Emerald II™ Solution, and 19 parts of PathHunter® Cell Assay Buffer) was added. Cells were placed at room temperature and in the dark for another hour before luminescence was measured with the LumiLITE™ microplate reader. With GraphPad Prism® software, a non-linear regression analysis was performed using the obtained luminescent values in order to generate a sigmoidal agonist dose-response curve with variable slope. The EC50 (i.e. half maximal effective concentration) and EC80 value (i.e. the effective concentration that leads to 80% of the maximal response) for human PDGF-C was calculated.
To evaluate the inhibitory activity of anti-human PDGF-C antibodies on PDGFRα, activation by human PDGF-C, equal volumes of […] concentrated solutions of anti-human PDGF-C antibodies and the EC80 of human PDGF-C, prepared in Cell Plating 16 Reagent, were mixed and the assay was performed as described above. As positive controls, an anti-human PDGF-C polyclonal goat IgG antibody (AF1560 from R&D Systems) and recombinant human PDGFRα, Fc chimera (6765-PR from R&D Systems) were employed. […]

PDGF-C = target: T3, PDGF-C (Homo sapiens, UniProt Q9NRA1); experiment: Surface Plasmon Resonance affinity of anti-PDGF-C antibodies for PDGF-C (Biacore 3000); type: binding; settings: humanized antibodies; as in Example 3
T3 construct: the growth factor domain of PDGF-C (amino acids 235-345 of human PDGF-C); purchased R&D Systems 1687-CC/CF
Description: The different antibodies were each separately coated to a CM5 chip at a density of 1680 RU using standard amine chemistry. Different concentrations (200, 175, 150, 125, 100, 75, 50, 25, 12.5, 6.25, 3.125 & 0 nM) of PDGF-C (R&D Systems, Cat. 1687-CC/CF) were injected over the coated antibody for 5 min, then buffer was flowed for 10 min to monitor the dissociation of the captured antigen. The surface was regeneration between each run with a single injection of glycine-HCl, pH 2.5. Affinities were obtained by analyzing the sensorgrams with the help of the BIAevaluation 4.1 software assuming a 1:1 interaction. The experiment was performed with a Biacore 3000 instrument.
The affinity of the above-listed exemplary humanized anti-PDGF-C antibodies for PDGF-C was analysed (as in Example 3) and the humanized antibodies were subsequently assessed in the in vitro bioassay described in Example 4.

[3] = peptide binds secondary antibody

T2 sequence (Q9NRA1 235-345): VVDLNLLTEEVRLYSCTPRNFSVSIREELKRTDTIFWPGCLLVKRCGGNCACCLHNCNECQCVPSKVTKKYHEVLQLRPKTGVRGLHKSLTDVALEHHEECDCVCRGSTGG
T3 sequence (Q9NRA1 235-345): as above

B1: 29H1: murine monoclonal anti-PDGF-C antibody, IgG1 κ; VL SEQ ID NO:17, VH SEQ ID NO:21 (antibody, listed as Mus musculus, V domains shown)
VH: EVQLVESGGDLVKPGGSLKLSCAASGFTFSNYGMSWVRQTPDKRLEWVATIGSGGHYTYYPDSVKGRFTISRDSAKSTLYLQMSSLRSDDTAIYYCARQAPLWDCSDYWGQGTTLTVSS
VL: DVLMTQTPLSLPVSLGDQASISCRSNQSIVHSNGDTYLEWYLQKPGQSPNLLIYKVSNRFSGVPDRFSGSGSGTDFTLKISRVEAEDLGVYYCFQGSHVPPTFGGGTKLEIK
- binding to peptide No 58 (SEQ ID NO: 96) VLQLRPKTGVRGLHK [1]: + (A “+” in the table indicate that a signal to background >3 was found and confirmed at least once)
- tolerability / body weight loss (glioblastoma tumor, U118): well-tolerated with no tumor body weight loss
- TGI (%) Day 53 (glioblastoma tumor, U118): 39.4%
- TGI (%) Day 56 (glioblastoma tumor, U118): 53.0%
- TGI (%) Day 60 (glioblastoma tumor, U118): 53.8%
- TGI (%) Day 63 (glioblastoma tumor, U118): 42.8%
- TGI (%) Day 67 (glioblastoma tumor, U118): 50.0%
- IC50 ([2]; Table 5 first IC50 column, PDGF-C at EC80, * average of 3 measurements): 3.45 nM
- IC50 ([2]; Table 5 second IC50 column (separate experiment), PDGF-C at EC80): 0.87 nM
- IC50 ([2]; Table 5 third IC50 column (separate experiment), PDGF-C at EC80): 0.24 nM

B2: 5A2: murine monoclonal anti-PDGF-C antibody, IgG2b κ; VL SEQ ID NO:15, VH SEQ ID NO:19 (antibody, listed as Mus musculus, V domains shown)
VH: EVQLVESGGDLVKPGGSLKLSCAASGFTFSNYGMSWVRQTPDKRLEWVATIGSGGHYTYYPDSVKGRFTISRDSAKSTLYLQMSSLKSEDTAIYYCARQAPLWDCSDYWGQGTTLTVSS
VL: DVLMTQTPLSLPVSLGDQASISCRSNQSIVHSNGDTYLEWYLQKPGQSPKLLIYKVSNRFSGVPDRFSGSGSGTDFTLKISRVEAEDLGVYYCFQGSHVPPTFGGGTKLEIK
- binding to peptide No 58 (SEQ ID NO: 96) VLQLRPKTGVRGLHK [1]: + (A “+” in the table indicate that a signal to background >3 was found and confirmed at least once)
- binding to peptide No 9 (SEQ ID NO: 47) FPHTYPRNTVLVWRL [1, 3]: + (A “+” in the table indicate that a signal to background >3 was found and confirmed at least once)
- binding to peptide No 27 (SEQ ID NO: 65) EPGFCIHYNIVMPQF [1, 3]: + (A “+” in the table indicate that a signal to background >3 was found and confirmed at least once)
- tolerability / body weight loss (glioblastoma tumor, U118): well-tolerated with no tumor body weight loss
- TGI (%) Day 53 (glioblastoma tumor, U118): 55.7%
- TGI (%) Day 56 (glioblastoma tumor, U118): 58.5%
- TGI (%) Day 60 (glioblastoma tumor, U118): 38.5%
- TGI (%) Day 63 (glioblastoma tumor, U118): 43.4%
- TGI (%) Day 67 (glioblastoma tumor, U118): 42.0%

B3: Humanized mAb 29H1: humanized 29H1; VH SEQ ID NO:106, VL SEQ ID NO:107 (antibody, V domains shown)
VH: EVQLLESGGGLVQPGGSLRLSCAASGFTFSNYGMSWVRQTPGKGLEWVATIGSGGHYTYYPDSVKGRFTISRDNAKNTLYLQMNSLRAEDTAVYYCARQAPLWDCSDYWGQGTLLTVSS
VL: DVVMTQSPLSLPVTLGQPASISCRSSQTIVHSDGTTYLEWYLQKPGQSPRLLIYKVSNRFSGVPDRFSGSGSGTDFTLKISRVEAEDVGVYYCFQGSHVPPTFGQGTKLEIK
modifications: humanized variable heavy chain murine monoclonal antibody 29 H1; humanized variable light chain murine monoclonal antibody 29 H1
- IC50 ([2]; humanized antibodies, * average of 3 measurements): 8.24 nM
- Kd (PDGF-C): 0.7 nM
